{"source": "patent US20220403041A1", "about": "(Sanofi, published 2022)", "key": {"[1]": {"target": "T1, soluble CD73 dimer (human, UniProt P21589 27-549, limits assumed)", "T1 construct": "CD73 in the flow (SPR) or in solution (BLI binning); also called soluble human CD73", "T1 sequence": "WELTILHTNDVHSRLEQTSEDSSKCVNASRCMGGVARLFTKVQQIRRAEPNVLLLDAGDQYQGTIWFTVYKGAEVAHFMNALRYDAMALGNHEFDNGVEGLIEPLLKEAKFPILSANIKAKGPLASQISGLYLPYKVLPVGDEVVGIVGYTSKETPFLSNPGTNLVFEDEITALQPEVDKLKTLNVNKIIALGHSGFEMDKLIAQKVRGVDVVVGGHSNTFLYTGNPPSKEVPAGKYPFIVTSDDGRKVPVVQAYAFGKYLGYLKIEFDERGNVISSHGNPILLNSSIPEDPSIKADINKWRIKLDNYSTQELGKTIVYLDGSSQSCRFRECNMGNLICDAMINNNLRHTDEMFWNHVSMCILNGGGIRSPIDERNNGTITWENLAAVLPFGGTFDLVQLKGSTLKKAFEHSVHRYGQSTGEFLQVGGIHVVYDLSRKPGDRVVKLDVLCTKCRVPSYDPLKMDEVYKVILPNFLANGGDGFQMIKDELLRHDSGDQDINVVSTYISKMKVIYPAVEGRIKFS", "assay": "SPR, antibody captured on Protein A chip, CD73 in flow; Langmuir ka with major component kd"}, "[2]": {"target": "T1, soluble CD73 dimer", "assay": "SPR, antibody captured on Protein A chip, CD73 in flow; biphasic fit, component of abundance 30%"}, "[3]": {"target": "T1, soluble CD73 dimer", "assay": "SPR, antibody on the solid support, soluble CD73 dimer in solution"}, "[4]": {"target": "T1, soluble CD73 dimer", "assay": "SPR, antibody captured on chip, CD73 in flow; biphasic fit, share after 300 s binding phase of the component with ka 3.24E+05 1/Ms"}, "[5]": {"target": "T1, soluble CD73 dimer", "assay": "SPR, antibody captured on Protein A chip, CD73 in flow; biphasic fit, component of abundance 70%"}, "[6]": {"target": "T1, soluble CD73 dimer", "assay": "SPR, antibody captured on chip, CD73 in flow; biphasic fit, share by T0 intercept of the component with kd 7.06E-03 1/s"}, "[7]": {"target": "T1, soluble CD73 dimer", "assay": "SPR, antibody captured on Protein A chip, CD73 in flow; biphasic fit, component of abundance 86%"}, "[8]": {"target": "T2, human CD73 on COR-L23 lung carcinoma cells (human) (UniProt P21589)", "T2 sequence": "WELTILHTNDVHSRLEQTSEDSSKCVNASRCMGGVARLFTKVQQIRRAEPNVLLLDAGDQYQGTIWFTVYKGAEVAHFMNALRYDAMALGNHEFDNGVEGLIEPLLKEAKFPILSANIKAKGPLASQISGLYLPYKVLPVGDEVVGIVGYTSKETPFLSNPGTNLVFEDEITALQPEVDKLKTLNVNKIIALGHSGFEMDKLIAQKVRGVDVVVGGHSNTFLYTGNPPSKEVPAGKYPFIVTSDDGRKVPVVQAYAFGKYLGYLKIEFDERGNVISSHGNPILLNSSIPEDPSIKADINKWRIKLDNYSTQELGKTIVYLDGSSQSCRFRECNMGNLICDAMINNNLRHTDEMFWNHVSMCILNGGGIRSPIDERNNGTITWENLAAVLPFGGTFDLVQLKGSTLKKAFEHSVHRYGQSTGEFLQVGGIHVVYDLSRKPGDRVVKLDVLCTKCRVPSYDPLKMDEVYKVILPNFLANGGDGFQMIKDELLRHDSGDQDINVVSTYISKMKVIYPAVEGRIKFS", "assay": "cell-based or functional assay"}, "[9]": {"target": "T1, soluble CD73 dimer", "assay": "SPR; KD from Langmuir ka and kd of the principal dissociation component"}, "[10]": {"target": "T1, soluble CD73 dimer", "assay": "SPR dissociation kinetics"}, "[11]": {"target": "T1, soluble CD73 dimer", "assay": "SPR, antibody captured on chip, CD73 in flow; biphasic fit, share by T0 intercept of the component with kd 7.86E-05 1/s"}, "[12]": {"target": "T1, soluble CD73 dimer", "assay": "SPR, antibody captured on Protein A chip, CD73 in flow; biphasic fit, component of abundance 14%"}, "[13]": {"target": "T1, soluble CD73 dimer", "assay": "SPR, antibody captured on Protein A chip, CD73 in flow; Langmuir 1:1 fit"}, "[14]": {"target": "T1, soluble CD73 dimer", "assay": "SPR, antibody captured on chip, CD73 in flow; biphasic fit, share after 300 s binding phase of the component with ka 1.50E+06 1/Ms"}, "[15]": {"target": "T1, soluble CD73 dimer", "assay": "SPR, antibody captured on chip, CD73 in flow; biphasic fit, share after 300 s binding phase of the component with ka 7.03E+05 1/Ms"}, "[16]": {"target": "T1, soluble CD73 dimer", "assay": "SPR, antibody captured on Protein A chip, CD73 in flow; biphasic fit, component of abundance 100%"}, "[17]": {"target": "T2, human CD73 on COR-L23 lung carcinoma cells (human)"}, "[18]": {"target": "T1, soluble CD73 dimer", "assay": "SPR, antibody captured on Protein A chip, CD73 in flow; biphasic fit, component of abundance 55%"}, "[19]": {"target": "T1, soluble CD73 dimer", "assay": "SPR, antibody captured on chip, CD73 in flow; biphasic fit, share by T0 intercept of the component with kd 2.46E-04 1/s"}, "[20]": {"target": "T1, soluble CD73 dimer", "assay": "SPR, antibody captured on chip, CD73 in flow; biphasic fit, share after 300 s binding phase of the component with ka 5.31E+06 1/Ms"}, "[21]": {"target": "T1, soluble CD73 dimer", "assay": "SPR, antibody captured on Protein A chip, CD73 in flow; biphasic fit, component of abundance 45%"}, "[22]": {"target": "T3, human CD73 on COR-L23 lung carcinoma cells (human, UniProt P21589 27-549)", "T3 sequence": "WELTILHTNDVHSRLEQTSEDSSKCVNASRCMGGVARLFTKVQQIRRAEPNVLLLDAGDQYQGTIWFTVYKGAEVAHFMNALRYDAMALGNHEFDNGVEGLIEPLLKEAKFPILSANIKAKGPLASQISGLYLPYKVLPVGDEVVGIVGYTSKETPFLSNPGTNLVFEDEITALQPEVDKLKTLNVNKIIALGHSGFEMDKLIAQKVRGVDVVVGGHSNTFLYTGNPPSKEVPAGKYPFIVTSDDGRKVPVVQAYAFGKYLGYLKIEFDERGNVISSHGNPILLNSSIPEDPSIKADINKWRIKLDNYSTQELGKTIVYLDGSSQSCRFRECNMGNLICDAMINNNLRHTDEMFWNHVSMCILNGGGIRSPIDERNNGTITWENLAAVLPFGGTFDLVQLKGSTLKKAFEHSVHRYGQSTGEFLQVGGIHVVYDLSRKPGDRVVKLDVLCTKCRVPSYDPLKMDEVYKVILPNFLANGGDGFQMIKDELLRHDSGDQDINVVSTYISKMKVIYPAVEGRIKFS", "assay": "cell-based or functional assay"}}, "data": [{"binder": "CL25/TB19 (bispecific antibody, part only; not given: CL25 arm; constant regions, V domains shown, part only) VH: QEQLQESGPGLVKPSETLSLTCTVSGGSIRNNYYNWIRQPAGKGLEWIGRIYISGTTNSNPSLKSRVTMSIDTSKNQFSLKLSSVTAADTAIYYCAREHYVSGTSLDNWGQGTLVTVSS VL: EIVMTQSPTTLSLSPGERATLSCRASQSVNTNYFSWYQQKPGLTPRLLIYGTSTRATGIPARFSGSGSGTDFTLTISSLQPEDFGIYYCQQDYNLPYTFGQGTYLEIK", "values": [{"measurement": "Kd", "setting": "[1]", "result": 0.16, "unit": "nM"}, {"measurement": "kon", "setting": "[2]", "result": "1.5e+06", "unit": "M⁻¹ s⁻¹"}, {"measurement": "fold lower KD than either parental antibody", "setting": "[3]", "result": 15, "unit": "fold"}, {"measurement": "abundance of association component (biphasic fit)", "setting": "[4]", "result": 70, "unit": "%"}, {"measurement": "kon", "setting": "[5]", "result": 324000, "unit": "M⁻¹ s⁻¹"}, {"measurement": "abundance of dissociation component (biphasic fit)", "setting": "[6]", "result": 14, "unit": "%"}, {"measurement": "koff", "setting": "[7]", "result": "7.86e-05", "unit": "s⁻¹"}, {"measurement": "EC50 (nM) of inhibition of CD73 activity (adenosine by LC/MS)", "setting": "[8]", "result": 0.619, "unit": "nM"}, {"measurement": "Max Inhib. (projected maximal inhibition at saturating antibody)", "setting": "[8]", "result": 97, "unit": "%"}, {"measurement": "fold increase of apparent affinity (KD) over either monovalent parental antibody", "setting": "[9]", "result": 26, "unit": "fold"}, {"measurement": "fold more stable (kd of the principal component) than with either monovalent parental", "setting": "[10]", "result": 8.8, "unit": "fold"}, {"measurement": "abundance of dissociation component (biphasic fit)", "setting": "[11]", "result": 86, "unit": "%"}, {"measurement": "koff", "setting": "[12]", "result": 0.00706, "unit": "s⁻¹"}, {"measurement": "koff", "setting": "[13]", "result": 0.00013, "unit": "s⁻¹"}, {"measurement": "kon", "setting": "[13]", "result": 493000, "unit": "M⁻¹ s⁻¹"}, {"measurement": "abundance of association component (biphasic fit)", "setting": "[14]", "result": 30, "unit": "%"}]}, {"binder": "TB19/H7 (bispecific antibody, part only; not given: H7 arm; constant regions, V domains shown, part only) VH: QEQLQESGPGLVKPSETLSLTCTVSGGSIRNNYYNWIRQPAGKGLEWIGRIYISGTTNSNPSLKSRVTMSIDTSKNQFSLKLSSVTAADTAIYYCAREHYVSGTSLDNWGQGTLVTVSS VL: EIVMTQSPTTLSLSPGERATLSCRASQSVNTNYFSWYQQKPGLTPRLLIYGTSTRATGIPARFSGSGSGTDFTLTISSLQPEDFGIYYCQQDYNLPYTFGQGTYLEIK", "values": [{"measurement": "Kd", "setting": "[1]", "result": 0.328, "unit": "nM"}, {"measurement": "abundance of association component (biphasic fit)", "setting": "[15]", "result": 55, "unit": "%"}, {"measurement": "EC50 (nM) of inhibition of CD73 activity (adenosine by LC/MS)", "setting": "[8]", "result": 0.27, "unit": "nM"}, {"measurement": "Max Inhib. (projected maximal inhibition at saturating antibody)", "setting": "[8]", "result": 95, "unit": "%"}, {"measurement": "koff", "setting": "[16]", "result": 0.000246, "unit": "s⁻¹"}, {"measurement": "% inhibition of CD73 activity at 1 µg/ml antibody (COR-L23 cells, 4 h, LC/MS); cell TB19 x H7", "setting": "[17]", "result": 93, "unit": "%"}, {"measurement": "kon", "setting": "[18]", "result": 703000, "unit": "M⁻¹ s⁻¹"}, {"measurement": "abundance of dissociation component (biphasic fit)", "setting": "[19]", "result": 100, "unit": "%"}, {"measurement": "abundance of association component (biphasic fit)", "setting": "[20]", "result": 45, "unit": "%"}, {"measurement": "koff", "setting": "[13]", "result": 0.000149, "unit": "s⁻¹"}, {"measurement": "kon", "setting": "[13]", "result": 752000, "unit": "M⁻¹ s⁻¹"}, {"measurement": "kon", "setting": "[21]", "result": "5.31e+06", "unit": "M⁻¹ s⁻¹"}]}, {"binder": "TB19/TB38 (bispecific antibody, V domains shown, Biparatopic human IgG1 made by Fab-arm exchange; also called TB19/TB38 biparatopic antibody) VH 1: QEQLQESGPGLVKPSETLSLTCTVSGGSIRNNYYNWIRQPAGKGLEWIGRIYISGTTNSNPSLKSRVTMSIDTSKNQFSLKLSSVTAADTAIYYCAREHYVSGTSLDNWGQGTLVTVSS VL 1: EIVMTQSPTTLSLSPGERATLSCRASQSVNTNYFSWYQQKPGLTPRLLIYGTSTRATGIPARFSGSGSGTDFTLTISSLQPEDFGIYYCQQDYNLPYTFGQGTYLEIK VH 2: QVQLVESGGGVVQPGRSLRLSCAASGFTFSSYGMHWVRQAPGKGLEWVAVFWYDGSNKYYADSVKGRFTISRDNSKNTLYLQMNSLSAEDTAVYYCARAPNWDDAFDIWGQGTMVTVSS VL 2: QTVVTQEPSFSVSPGGTVTLTCGLSSGSVSTSYYPNWYQQTPGQAPRTLIYSTNTRSSGVPDRFSGSILGNKAALTITGAQADDESDYYCVLFMGSGIWVFGGGTKLTVL", "values": [{"measurement": "Kd", "setting": "[1]", "result": 0.555, "unit": "nM"}, {"measurement": "EC50 (nM) of inhibition of CD73 activity (adenosine by LC/MS)", "setting": "[22]", "result": 0.777, "unit": "nM"}, {"measurement": "koff", "setting": "[13]", "result": 0.000102, "unit": "s⁻¹"}, {"measurement": "kon", "setting": "[13]", "result": 184000, "unit": "M⁻¹ s⁻¹"}]}]}
